# From patent US20050244864A1, “Development and use of fluorescent probes of unbound analytes” (priority 2004, published 2005)
# Residue numbers refer to the chain shown, from its start. In names and notes the source's numbering stands.
# B1: L2P22E6: acrylodan-labeled rI-FABP-L72A mutein: M18 V, G31 A, F55 I, A73 W (protein, UniProt P02693 2-132, looked up, variant M18V G31A F55I L72A A73W)
# Fatty acid-binding protein, …: AFDGTWKVDRNENYEKFVEKMGINVVKRKLAAHDNLKLTITQEGNKFTVKESSNIRNIDVVFELGVDFAYSAWDGTELTGTWTMEGNKLVGKFKRVDNGKELIAVREISGNELIQTYTYEGVEAKRIFKKE
# modifications: acrylodan label
# notes: acrylodan-labeled rI-FABP-L72A mutein: M18 V, G31 A, F55 I, A73 W
# B2: L2P8A6: acrylodan-labeled rI-FABP-L72A mutein: M18 I, G31 V, F55 V, A73 V (protein, UniProt P02693 2-132, looked up, variant M18I G31V F55V L72A A73V)
# Fatty acid-binding protein, …: B1 Fatty acid-binding protein, … with V18I, A31V, I55V, W73V
# modifications: acrylodan label
# B3: L2P18H12: acrylodan-labeled rI-FABP-L72A mutein: M18 I, G31 V, F55 WT, A73 G (protein, UniProt P02693 2-132, looked up, variant M18I G31V L72A A73G)
# Fatty acid-binding protein, …: B1 Fatty acid-binding protein, … with V18I, A31V, I55F, W73G
# modifications: acrylodan label
# notes: acrylodan-labeled rI-FABP-L72A mutein: M18 I, G31 V, F55 WT, A73 G
# B4: L2P17H10: acrylodan-labeled rI-FABP-L72A mutein: M18 G, G31 F, F55 WT, A73 L (protein, UniProt P02693 2-132, looked up, variant M18G G31F L72A A73L)
# Fatty acid-binding protein, …: B1 Fatty acid-binding protein, … with V18G, A31F, I55F, W73L
# modifications: acrylodan label
# notes: acrylodan-labeled rI-FABP-L72A mutein: M18 G, G31 F, F55 WT, A73 L
# B5: L2P11B4: acrylodan-labeled rI-FABP-L72A mutein: M18 V, G31 A, F55 WT, A73 W (protein, UniProt P02693 2-132, looked up, variant M18V G31A L72A A73W)
# Fatty acid-binding protein, …: B1 Fatty acid-binding protein, … with I55F
# modifications: acrylodan label
# notes: acrylodan-labeled rI-FABP-L72A mutein: M18 V, G31 A, F55 WT, A73 W
# B6: L2P12C5: acrylodan-labeled rI-FABP-L72A mutein: M18 I, G31 I, F55 M, A73 I (protein, UniProt P02693 2-132, looked up, variant M18I G31I F55M L72A A73I)
# Fatty acid-binding protein, …: B1 Fatty acid-binding protein, … with V18I, A31I, I55M, W73I
# modifications: acrylodan label
# B7: L2P23A4: acrylodan-labeled rI-FABP-L72A mutein: M18 V, G31 I, F55 L, A73 V (protein, UniProt P02693 2-132, looked up, variant M18V G31I F55L L72A A73V)
# Fatty acid-binding protein, …: B1 Fatty acid-binding protein, … with A31I, I55L, W73V
# modifications: acrylodan label
# B8: L2P22G6: acrylodan-labeled rI-FABP-L72A mutein: M18 I, G31 Y, F55 WT, A73 G (protein, UniProt P02693 2-132, looked up, variant M18I G31Y L72A A73G)
# Fatty acid-binding protein, …: B1 Fatty acid-binding protein, … with V18I, A31Y, I55F, W73G
# modifications: acrylodan label
# notes: acrylodan-labeled rI-FABP-L72A mutein: M18 I, G31 Y, F55 WT, A73 G
# B9: L2P4C5: acrylodan-labeled rI-FABP-L72A mutein: M18 I, G31 Y, F55 WT, A73 WT (protein, UniProt P02693 2-132, looked up, variant M18I G31Y L72A)
# Fatty acid-binding protein, …: B1 Fatty acid-binding protein, … with V18I, A31Y, I55F, W73A
# modifications: acrylodan label
# B10: L2P8A5: acrylodan-labeled rI-FABP-L72A mutein: M18 V, G31 A, F55 W, A73 W (protein, UniProt P02693 2-132, looked up, variant M18V G31A F55W L72A A73W)
# Fatty acid-binding protein, …: B1 Fatty acid-binding protein, … with I55W
# modifications: acrylodan label
# B11: L2P2E11: acrylodan-labeled rI-FABP-L72A mutein: M18 I, G31 F, F55 WT, A73 WT (protein, UniProt P02693 2-132, looked up, variant M18I G31F L72A)
# Fatty acid-binding protein, …: B1 Fatty acid-binding protein, … with V18I, A31F, I55F, W73A
# modifications: acrylodan label
# B12: L5P16 H4: UCB-responsive probe from rI-FABP-L72A; mutations 126K 73F 72A (protein, UniProt P02693 2-132, looked up, variant L72A A73F R126K)
# Fatty acid-binding protein, …: B1 Fatty acid-binding protein, … with V18M, A31G, I55F, W73F, R126K
# modifications: acrylodan label
# notes: UCB-responsive probe from rI-FABP-L72A; mutations 126K 73F 72A
# B13: L2P22 B1: UCB-responsive probe from rI-FABP-L72A; mutations 18Y 31V 55V 72A (protein, UniProt P02693 2-132, looked up, variant M18Y G31V F55V L72A)
# Fatty acid-binding protein, …: B1 Fatty acid-binding protein, … with V18Y, A31V, I55V, W73A
# Test: Probe fluorescence ratio response to arachidonate:BSA complex, relative to ADIFAB2 (ΔR/ΔRAD2)
# Assay type: binding
# Settings: fluorescence response (R-Ro) relative to ADIFAB2; arachidonate
# Procedure, shortened: (§1)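 Mutant probes were screened against fatty acid:BSA complexes made by adding fatty acid sodium salts at pH 11 to BSA in HEPES, titrated until ADIFAB2 gave ΔR ≈0.4 ([FFAu] 100–1000 nM). Wells held 6 μM BSA; excitation 375 nm, emission 550/457 nm, background-subtracted.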
row,Molecule,ΔR/ΔRAD2 AA
1,B1,1.0
2,B2,0.6
3,B3,1.3
4,B4,1.8
5,B5,1.8
6,B6,1.3
7,B7,2.8
8,B8,1.8
9,B9,2.2
10,B10,1.1
11,B11,1.9

# Test: Probe fluorescence ratio response to linolenate:BSA complex, relative to ADIFAB2 (ΔR/ΔRAD2)
# Assay type: binding
# Settings: fluorescence response (R-Ro) relative to ADIFAB2; linolenate
# Procedure, shortened: as §1
row,Molecule,ΔR/ΔRAD2 LNA
1,B1,1.6
2,B2,1.2
3,B3,1.9
4,B4,1.2
5,B5,2.8
6,B6,1.7
7,B7,2.6
8,B8,2.7
9,B9,2.8
10,B10,1.9
11,B11,2.8

# Test: Probe fluorescence ratio response to linoleate:BSA complex, relative to ADIFAB2 (ΔR/ΔRAD2)
# Assay type: binding
# Settings: fluorescence response (R-Ro) relative to ADIFAB2; linoleate
# Procedure, shortened: as §1
row,Molecule,ΔR/ΔRAD2 LA
1,B1,1.3
2,B2,0.8
3,B3,1.7
4,B4,1.5
5,B5,2.6
6,B6,1.5
7,B7,3.1
8,B8,2.6
9,B9,2.8
10,B10,1.6
11,B11,2.5

# Test: Probe fluorescence ratio response to oleate:BSA complex, relative to ADIFAB2 (ΔR/ΔRAD2)
# Assay type: binding
# Settings: fluorescence response (R-Ro) relative to ADIFAB2; oleate
# Procedure, shortened: as §1
row,Molecule,ΔR/ΔRAD2 OA
1,B1,0.8
2,B2,0.4
3,B3,1.0
4,B4,1.4
5,B5,1.9
6,B6,0.8
7,B7,2.3
8,B8,1.6
9,B9,2.1
10,B10,0.9
11,B11,1.6

# Test: Probe fluorescence ratio response to palmitate:BSA complex, relative to ADIFAB2 (ΔR/ΔRAD2)
# Assay type: binding
# Settings: fluorescence response (R-Ro) relative to ADIFAB2; palmitate
# Procedure, shortened: as §1
row,Molecule,ΔR/ΔRAD2 PA
1,B1,1.3
2,B2,1.0
3,B3,1.6
4,B4,1.0
5,B5,2.2
6,B6,1.5
7,B7,1.9
8,B8,1.9
9,B9,1.8
10,B10,1.5
11,B11,2.0

# Test: Probe fluorescence ratio response to palmitoleate:BSA complex, relative to ADIFAB2 (ΔR/ΔRAD2)
# Assay type: binding
# Settings: fluorescence response (R-Ro) relative to ADIFAB2
row,Molecule,ΔR/ΔRAD2 POA
1,B1,1.6
2,B2,1.3
3,B3,2.1
4,B4,1.2
5,B5,3.1
6,B6,1.9
7,B7,2.8
8,B8,2.6
9,B9,2.6
10,B10,2.0
11,B11,2.6

# Test: Probe fluorescence ratio response to stearate:BSA complex, relative to ADIFAB2 (ΔR/ΔRAD2)
# Assay type: binding
# Settings: fluorescence response (R-Ro) relative to ADIFAB2
row,Molecule,ΔR/ΔRAD2 SA
1,B1,0.4
2,B2,0.2
3,B3,0.5
4,B4,1.7
5,B5,0.7
6,B6,0.4
7,B7,1.2
8,B8,0.9
9,B9,1.0
10,B10,0.4
11,B11,0.8

# Test: Screening of FFA-insensitive probes for response to UCB:BSA complexes (ΔI/Io)
# Assay type: binding
# Settings: fractional change in fluorescence intensity; UCB:BSA 1:1; emission 440 nm
# Description: A probe for unbound unconjugated bilirubin (UCBu) was developed and used to measure concentrations of UCBu in plasma spiked with a defined quantity of unconjugated bilirubin (UCB). Using 384-well plates, 335 mutant probes that were insensitive to FFA were screened for their response to UCB:BSA complexes at UCB:BSA ratios of 1:1 and 1:2 in aqueous buffer. All probes were prepared from rI-FABP-L72A with 1 to 5 mutations. Screening was conducted by comparing the fractional change in fluorescence intensity (ΔI/Io, where ΔI is the difference in probe intensity in the presence and absence of UCB and Io is the intensity in the absence of UCB) for the probes with that for ADIFAB2. This value was calculated for two emission wavelengths: 440 and 500 nm. […] The emitted fluorescence of these probes is quenched by binding of UCB.
row,Molecule,ΔI/Io 1:1 UCB:BSA 440 nm
1,B12,−0.69
2,B13,−0.70

# Same assay, conditions: fractional change in fluorescence intensity; UCB:BSA 1:1; emission 500 nm
row,Molecule,ΔI/Io 1:1 UCB:BSA 500 nm
1,B12,−0.64
2,B13,−0.68

# Same assay, conditions: fractional change in fluorescence intensity; UCB:BSA 1:2; emission 440 nm
row,Molecule,ΔI/Io 1:2 UCB:BSA 440 nm
1,B12,−0.37
2,B13,−0.36

# Same assay, conditions: fractional change in fluorescence intensity; UCB:BSA 1:2; emission 500 nm
row,Molecule,ΔI/Io 1:2 UCB:BSA 500 nm
1,B12,−0.31
2,B13,−0.35

# Test: Binding isotherm: probe titrated with UCB, Kd
# Settings: UCB; at 22° C.; read-out: Kd (nM) at 22° C.
# Description: Larger preparations of select probes were prepared for quantitative determination of binding affinities. Binding isothermns were performed by measuring the fluorescence intensity for 1 μM of a given probe as the probe was titrated with known quantities of UCB. […] Table 3 lists the Kd values and mutations for some example probes. […] This property was confirmed by titration of a mixture of 0.5 μM UCB and 1 μM L2P14F7 with sodium oleate. […] Oleic acid is the most abundant FFA in serum, and measurements of normal serum samples indicate that typical unbound concentrations of oleic acid are less than 1 nM. By using non-responsive probes from FFA screening to conduct a secondary screening with other unbound analytes, a UCB-sensitive probe that has a negligible response to the major FFA in blood has been generated from a rI-FABP-L72A mutant.
row,Kd [nM],Molecule
1,390,B12
2,550,B13
